Key:
[1] = target: T1, human complement protein C6 (human, UniProt P13671 22-934); assay: SPR (Biacore 8K), IgG on protein G chip, C6 0.03-25 nM 3-fold series, 1:1 fit
T1 construct: also called human C6; C6 antigen
Method: (§1) The kinetics of C6 binding was compared for the purified chimeric and lead humanized C601 using surface plasmon resonance (SPR, Biacore 8K). IgG were captured on a protein G sensor chip and binding of C6 measured using a three-fold concentration series of C6 from 0.03 nM-25 nM (FIG. 5). In a second experiment, a two-fold concentration series from 0.31 nM-20 nM C6 was used (FIG. 6). For all antibodies, binding of C6 occurred in a concentration-dependent manner and data could be fitted using a 1:1 model to calculate the association rate (kₒₙ), dissociation rates (kd) and affinity constant (KD). The kinetic data are shown in Table 5, which indicates only small differences between the parameters determined from the two independent experiments.
(§2) Binding ELISAs used Nunc Maxisorp 384-well plates, wells coated with C6, C5b,6 complex or C5 (Complement Technology Inc, TX) and goat anti-human IgG (Fab specific) peroxidase secondary antibodies (Sigma-Aldrich, A0293) for detection. For the thermal stability assay, IgG supernatants were diluted to their EC₈₀ concentration, incubated at different temperatures for 10 min and C6 binding measured by ELISA with the binding signal plotted against temperature. Kinetics of C6 binding were measured by capturing antibodies from supernatant samples using Protein G biosensors and performing a 20 min association step with 2.5 nM C6 and a 20 min dissociation step using the Octet RED96. Precise kinetic measurements were obtained by surface plasmon resonance (Biacore 8K, Cytiva). The IgG were captured on a protein G sensor chip. Binding of C6 measured using a three-fold concentration series of C6 from 0.03 nM-25 nM and data were fitted using a 1:1 model in two independent experiments.

[2] = target: T1, human complement protein C6; assay: C6-binding ELISA, A650 nm; sample 'mouse serum' (28 days at 37 C) [cont.) E]
Method: (§3) For the serum stability assessment, samples of the purified candidate antibodies are normally incubated in mouse, human and cynomolgus serum at 37 C for 28 days and then tested in an antigen-binding ELISA. Since the anti-C6 antibodies are expected to bind to both human and cynomolgus C6 but not mouse C6, we anticipated that incubating in human or cynomolgus sera would reduce ELISA binding due to occupation of the antibody binding sites by C6 protein from the sera. Therefore, the chimeric and humanized antibodies were tested with human and mouse sera and with human sera from which the C6 protein has been depleted. […]
as §2, with “Precise kinetic measurements were obtained by surface plasmon resonance (Biacore 8K, Cytiva). The IgG were captured on a protein G sensor chip. Binding of C6 measured using a three-fold concentration series of C6 from 0.03 nM-25 nM and data were fitted using a 1:1 model in two independent experiments.” left out

[3] = target: T1, human complement protein C6; assay: C6-binding ELISA, A650 nm; sample 'human serun' (human serum, 28 days at 37 C) [cont.) E]
Method: as §3
as §2, with “Precise kinetic measurements were obtained by surface plasmon resonance (Biacore 8K, Cytiva). The IgG were captured on a protein G sensor chip. Binding of C6 measured using a three-fold concentration series of C6 from 0.03 nM-25 nM and data were fitted using a 1:1 model in two independent experiments.” left out

[4] = target: human complement protein C5 (human, UniProt P01031 19-673; P01031 678-1676); assay: ELISA, C5-coated wells
Method: The 20 purified antibodies were tested by ELISA for their abilities to bind human complement proteins C5, C5b6 and C6. The antibodies were divided into two sets for this analysis. MoC601 HuG4K and HuG4K isotype controls were included alongside each set, as was C601HFKC4 HuG4K (aka 3713) expression supernatant from the original transfection as an additional positive control. In addition, three humanized antibodies (C601HFKC4 HuG4K, C601HPKI HuG4K and C601HPKC4 HuG4K) were included within both sets to allow better comparison between the plates. The antibodies all show specificity for C6 with no detectable binding to C5. All humanized antibodies bind to C6 and to C6 as part of the C5b6 complex. The lower plateaus of the C5b6 complex binding curves are explained by less C6 protein being available for binding when wells are coated with C5b6 complex as opposed to C6 alone. […] The EC₅₀ values are included in the figure but slightly different plateau levels observed for the antibodies are influencing the apparent EC₅₀ values. However, it was noted that the EC₅₀ values tended to be lower on the plates for the second set of antibodies. For this reason, a subset of the 20 antibodies was tested in a further ELISA for binding to C6 and C5b6 complex.
as §2

[5] = target: T1, human complement protein C6; assay: SPR (Biacore 8K)
Method: as §1, §2

[6] = target: T1, human complement protein C6; assay: C6-binding ELISA, A650 nm; sample 'PBS' (28 days at 37 C) [cont.) E]
Method: (§4) For the serum stability assessment, samples of the purified candidate antibodies are normally incubated in mouse, human and cynomolgus serum at 37 C for 28 days and then tested in an antigen-binding ELISA. Since the anti-C6 antibodies are expected to bind to both human and cynomolgus C6 but not mouse C6, we anticipated that incubating in human or cynomolgus sera would reduce ELISA binding due to occupation of the antibody binding sites by C6 protein from the sera. Therefore, the chimeric and humanized antibodies were tested with human and mouse sera and with human sera from which the C6 protein has been depleted. The C6-binding ELISA was then used to compare the binding abilities of the C601 antibodies that had been incubated in the 3 different sera to antibody samples that were incubated in PBS at 37 C or kept at 4 C (non-incubated).
(§5) The Uncle instrument (Unchained Labs) was used to monitor unfolding via intrinsic fluorescence and aggregation by static light scattering across a temperature gradient to obtain melting temperatures (Tₘ). […] Isoelectric points were determined by capillary isoelectric focusing using a PA800+ (Beckman Coulter). […]

[7] = target: T1, human complement protein C6; assay: C6-binding ELISA, A650 nm; sample 'PBS, non-incubated' (kept at 4 C) [cont.) E]
Method: (§6) The C6-binding ELISA was then used to compare the binding abilities of the C601 antibodies that had been incubated in the 3 different sera to antibody samples that were incubated in PBS at 37 C or kept at 4 C (non-incubated).
as §2, with “Precise kinetic measurements were obtained by surface plasmon resonance (Biacore 8K, Cytiva). The IgG were captured on a protein G sensor chip.” left out
(§7) The Uncle instrument (Unchained Labs) was used to monitor unfolding via intrinsic fluorescence and aggregation by static light scattering across a temperature gradient to obtain melting temperatures (Tₘ). […] Isoelectric points were determined by capillary isoelectric focusing using a PA800+ (Beckman Coulter).

[8] = target: T1, human complement protein C6; assay: C6-binding ELISA, A650 nm; sample 'C6-depleted human serum' (28 days at 37 C) [cont.) E]
Method: as §3
as §2, with “Precise kinetic measurements were obtained by surface plasmon resonance (Biacore 8K, Cytiva). The IgG were captured on a protein G sensor chip. Binding of C6 measured using a three-fold concentration series of C6 from 0.03 nM-25 nM and data were fitted using a 1:1 model in two independent experiments.” left out

[9] = target: T1, human complement protein C6; assay: ELISA, C6-coated wells, large-scale purified antibody
[10] = target: T1, human complement protein C6; assay: SPR (Biacore 8K), IgG on protein G chip, C6 0.31-20 nM 2-fold series, 1:1 fit
Method: as §1

[11] = target: T1, human complement protein C6; assay: C6-binding ELISA, A650 nm; sample 'PBS, non-incubated' (kept at 4 C) [cont.) F]
Method: as §6
as §2, with “Precise kinetic measurements were obtained by surface plasmon resonance (Biacore 8K, Cytiva). The IgG were captured on a protein G sensor chip.” left out
as §7

[12] = target: T1, human complement protein C6; assay: C6-binding ELISA, A650 nm; sample 'human serun' (human serum, 28 days at 37 C) [cont.) F]
Method: as §4, §5

[13] = target: T1, human complement protein C6; assay: C6-binding ELISA, A650 nm; sample 'PBS' (28 days at 37 C) [cont.) F]
Method: as §4, §5

[14] = target: T1, human complement protein C6; assay: C6-binding ELISA, A650 nm; sample 'mouse serum' (28 days at 37 C) [cont.) F]
Method: as §3
as §2, with “Precise kinetic measurements were obtained by surface plasmon resonance (Biacore 8K, Cytiva). The IgG were captured on a protein G sensor chip. Binding of C6 measured using a three-fold concentration series of C6 from 0.03 nM-25 nM and data were fitted using a 1:1 model in two independent experiments.” left out

[15] = target: T1, human complement protein C6; assay: C6-binding ELISA, A650 nm; sample 'C6-depleted human serum' (28 days at 37 C) [cont.) F]
Method: as §3
as §2, with “Precise kinetic measurements were obtained by surface plasmon resonance (Biacore 8K, Cytiva). The IgG were captured on a protein G sensor chip. Binding of C6 measured using a three-fold concentration series of C6 from 0.03 nM-25 nM and data were fitted using a 1:1 model in two independent experiments.” left out

T1 sequence (P13671 22-934 limits assumed): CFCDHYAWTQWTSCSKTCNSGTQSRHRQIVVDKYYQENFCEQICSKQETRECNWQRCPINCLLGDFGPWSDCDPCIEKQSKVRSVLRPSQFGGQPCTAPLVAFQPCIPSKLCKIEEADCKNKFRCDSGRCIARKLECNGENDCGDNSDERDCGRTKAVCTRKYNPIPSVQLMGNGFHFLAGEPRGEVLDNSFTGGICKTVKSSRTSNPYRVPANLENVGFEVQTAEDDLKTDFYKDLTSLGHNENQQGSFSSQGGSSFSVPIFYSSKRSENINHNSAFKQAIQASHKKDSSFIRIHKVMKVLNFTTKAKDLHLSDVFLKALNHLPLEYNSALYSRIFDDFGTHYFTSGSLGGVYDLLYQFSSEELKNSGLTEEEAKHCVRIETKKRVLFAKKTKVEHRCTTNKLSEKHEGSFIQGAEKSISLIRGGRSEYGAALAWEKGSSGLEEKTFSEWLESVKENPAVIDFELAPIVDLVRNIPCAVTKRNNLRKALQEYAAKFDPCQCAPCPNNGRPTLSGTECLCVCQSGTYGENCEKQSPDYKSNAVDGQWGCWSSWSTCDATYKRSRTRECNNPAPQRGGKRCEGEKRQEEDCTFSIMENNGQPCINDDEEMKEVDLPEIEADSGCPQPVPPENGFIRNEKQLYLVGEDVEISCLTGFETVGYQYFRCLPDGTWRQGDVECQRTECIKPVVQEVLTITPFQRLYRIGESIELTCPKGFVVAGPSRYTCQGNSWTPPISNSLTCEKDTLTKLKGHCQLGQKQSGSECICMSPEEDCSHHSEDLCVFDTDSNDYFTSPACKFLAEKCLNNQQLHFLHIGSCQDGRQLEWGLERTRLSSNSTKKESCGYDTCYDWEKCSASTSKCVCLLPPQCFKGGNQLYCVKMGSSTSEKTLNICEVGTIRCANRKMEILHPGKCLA
human complement protein C5, sequence (P01031 19-673 limits assumed, chain 1 of 2): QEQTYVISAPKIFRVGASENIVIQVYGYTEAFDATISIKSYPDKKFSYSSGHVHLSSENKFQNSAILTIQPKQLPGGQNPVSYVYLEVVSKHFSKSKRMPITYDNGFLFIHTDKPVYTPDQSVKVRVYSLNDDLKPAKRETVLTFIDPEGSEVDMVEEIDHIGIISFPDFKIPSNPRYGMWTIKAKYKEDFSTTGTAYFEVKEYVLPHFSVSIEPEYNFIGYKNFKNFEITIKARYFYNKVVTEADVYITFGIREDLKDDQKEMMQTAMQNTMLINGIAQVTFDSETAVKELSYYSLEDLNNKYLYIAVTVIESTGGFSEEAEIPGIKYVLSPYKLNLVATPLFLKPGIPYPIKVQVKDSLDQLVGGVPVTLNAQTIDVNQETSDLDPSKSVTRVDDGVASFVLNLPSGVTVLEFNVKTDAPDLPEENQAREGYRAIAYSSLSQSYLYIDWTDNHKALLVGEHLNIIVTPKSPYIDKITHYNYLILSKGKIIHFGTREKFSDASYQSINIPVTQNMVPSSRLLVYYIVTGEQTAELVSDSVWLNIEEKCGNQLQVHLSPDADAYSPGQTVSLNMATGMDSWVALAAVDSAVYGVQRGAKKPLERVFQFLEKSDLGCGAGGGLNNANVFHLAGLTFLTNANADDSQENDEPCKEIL
human complement protein C5, sequence (P01031 678-1676 limits assumed, chain 2 of 2): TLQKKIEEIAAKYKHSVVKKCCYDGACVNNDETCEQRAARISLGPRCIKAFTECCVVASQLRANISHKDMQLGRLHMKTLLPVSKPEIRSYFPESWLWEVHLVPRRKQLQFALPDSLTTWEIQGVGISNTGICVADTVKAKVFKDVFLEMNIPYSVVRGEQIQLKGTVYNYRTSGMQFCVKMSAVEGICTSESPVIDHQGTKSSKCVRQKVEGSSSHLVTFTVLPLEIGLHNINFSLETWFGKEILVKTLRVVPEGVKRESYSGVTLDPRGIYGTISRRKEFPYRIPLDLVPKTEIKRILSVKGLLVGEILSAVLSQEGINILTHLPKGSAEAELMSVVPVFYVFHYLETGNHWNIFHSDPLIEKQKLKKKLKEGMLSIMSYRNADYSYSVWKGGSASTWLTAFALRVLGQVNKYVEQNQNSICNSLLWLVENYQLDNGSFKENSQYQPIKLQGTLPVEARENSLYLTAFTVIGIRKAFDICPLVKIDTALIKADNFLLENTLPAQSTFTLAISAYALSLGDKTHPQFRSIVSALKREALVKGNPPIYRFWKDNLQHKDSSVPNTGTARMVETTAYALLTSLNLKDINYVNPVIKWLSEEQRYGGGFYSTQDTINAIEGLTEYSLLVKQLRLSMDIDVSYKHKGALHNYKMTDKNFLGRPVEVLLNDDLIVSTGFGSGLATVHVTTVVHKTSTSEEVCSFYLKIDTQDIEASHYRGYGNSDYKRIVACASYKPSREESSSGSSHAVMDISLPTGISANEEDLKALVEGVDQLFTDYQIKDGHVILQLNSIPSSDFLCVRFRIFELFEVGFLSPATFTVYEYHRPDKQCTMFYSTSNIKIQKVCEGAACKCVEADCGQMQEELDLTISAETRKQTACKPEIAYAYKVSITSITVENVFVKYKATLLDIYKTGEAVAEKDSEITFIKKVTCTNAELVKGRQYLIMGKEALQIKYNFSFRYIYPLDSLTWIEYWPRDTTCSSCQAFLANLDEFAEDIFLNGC

B1: C601HOKC4 HuG4K (antibody, human IgG4 S228P, kappa, V domains shown)
VH: QVQLVQSGAEVKKPGESLKISCKASGYAFSDYWINWVRQMPGKGLEWMGQIYPGDDDTNYNPSFQGQATLSADKSISTAYLQWSSLKASDTAMYYCAREGYYGYTYVEYFDVWGTGTTVTVSS
VL: QIVLTQSPATLSLSPGERATLSCRASSSVSYLHWYQQKPGQSPRLWIYDTSKRATGIPARFSGSGSGTDYTLTISSLEPEDFAVYYCQQWTSNPLTFGQGTKLEIKR
B1 showed a Kd [1] of 0.411 nM, a koff [1] of 0.000492 s⁻¹ and a kon [1] of 1.2e+06 M⁻¹ s⁻¹. The EC50 [2] was 0.16 nM, the EC50 [3] was 0.16 nM and the binding result [4] was “no binding”. For the same binder, the Kd [5] was 0.411 nM, the EC50 [6] was 0.18 nM and the EC50 [7] was 0.13 nM. For the same binder, the EC50 [8] was 0.15 nM, the EC50 [9] was 0.21 nM and the Kd [10] was 0.284 nM. The koff [10] was 0.000375 s⁻¹ and the kon [10] was 1.32e+06 M⁻¹ s⁻¹.

B2: C601HPKC4 HuG4K (antibody, human IgG4 S228P, kappa)
heavy: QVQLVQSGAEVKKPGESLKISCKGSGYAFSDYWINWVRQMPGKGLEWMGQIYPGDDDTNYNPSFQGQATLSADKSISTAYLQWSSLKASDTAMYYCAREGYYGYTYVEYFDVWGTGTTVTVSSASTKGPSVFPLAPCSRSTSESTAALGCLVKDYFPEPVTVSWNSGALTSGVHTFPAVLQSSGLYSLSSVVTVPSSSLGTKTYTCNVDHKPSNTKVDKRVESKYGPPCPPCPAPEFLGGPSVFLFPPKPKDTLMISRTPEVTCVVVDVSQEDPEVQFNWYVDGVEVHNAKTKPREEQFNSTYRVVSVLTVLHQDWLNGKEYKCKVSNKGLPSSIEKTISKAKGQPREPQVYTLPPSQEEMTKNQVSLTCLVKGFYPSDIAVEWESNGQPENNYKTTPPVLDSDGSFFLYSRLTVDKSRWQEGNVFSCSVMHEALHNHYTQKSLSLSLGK
light: QIVLTQSPATLSLSPGERATLSCRASSSVSYLHWYQQKPGQSPRLWIYDTSKRATGIPARFSGSGSGTDYTLTISSLEPEDFAVYYCQQWTSNPLTFGQGTKLEIKRTVAAPSVFIFPPSDEQLKSGTASVVCLLNNFYPREAKVQWKVDNALQSGNSQESVTEQDSKDSTYSLSSTLTLSKADYEKHKVYACEVTHQGLSSPVTKSFNRGEC
With B2 the Kd [1] was 0.373 nM, the koff [1] was 0.000397 s⁻¹ and the kon [1] was 1.07e+06 M⁻¹ s⁻¹. For the same binder, the EC50 [11] was 0.22 nM, the EC50 [12] was 0.17 nM and the binding result [4] was “no binding”. The EC50 [13] was 0.19 nM, the Kd [5] was 0.373 nM and the EC50 [9] was 0.23 nM. For the same binder, the Kd [10] was 0.299 nM, the koff [10] was 0.000355 s⁻¹ and the kon [10] was 1.19e+06 M⁻¹ s⁻¹. The EC50 [14] was 0.16 nM and the EC50 [15] was 0.17 nM.

— patent US20260125455A1 (CLEVELAND CLINIC FOUNDATION, published 2026)
